According to patent US20230131056A1 (Stanford University, published 2023):
Numbering of substitutions follows the chain as printed. Where two headings read alike, the source gives them in different places.

Tests used:
[1] = target: T1, PD-L2-Fc (human PD-L2) (human, UniProt Q9BQ51 20-220, limits assumed); experiment: yeast surface display, flow cytometry titration with soluble PDL2
T1 construct: not shown: Fc portion
T1 sequence (looked up): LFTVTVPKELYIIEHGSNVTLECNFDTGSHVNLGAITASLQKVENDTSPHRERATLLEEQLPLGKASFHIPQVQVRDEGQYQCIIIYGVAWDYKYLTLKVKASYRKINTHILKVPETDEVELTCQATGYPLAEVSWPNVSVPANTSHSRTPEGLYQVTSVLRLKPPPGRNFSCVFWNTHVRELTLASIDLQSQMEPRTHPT

[2] = target: T1, PD-L2-Fc (human PD-L2); experiment: yeast surface display binding assay for PDL2 (summary list)
[3] = target: T1, PD-L2-Fc (human PD-L2); experiment: yeast surface display, flow cytometry titration with soluble PDL2 (cell binding A.U. against PDL2 concentration)
[4] = target: T2, PDL1-Fc (human PD-L1) (human, UniProt Q9NZQ7 19-238, limits assumed); experiment: yeast surface display, flow cytometry titration with soluble PDL1
T2 construct: not shown: Fc portion
T2 sequence (Q9NZQ7 19-238 limits assumed): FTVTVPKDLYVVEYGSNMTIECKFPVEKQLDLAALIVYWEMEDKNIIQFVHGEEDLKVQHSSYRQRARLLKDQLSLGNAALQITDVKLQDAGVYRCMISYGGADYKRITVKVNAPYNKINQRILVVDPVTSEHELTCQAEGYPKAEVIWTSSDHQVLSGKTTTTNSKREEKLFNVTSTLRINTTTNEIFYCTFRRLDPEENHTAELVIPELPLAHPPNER

[5] = target: T1, PD-L2-Fc (human PD-L2); experiment: yeast surface display, flow cytometry titration with soluble PDL2 (cell binding A.U. against PDL2 concentration); remark: listed apart in the source
[6] = target: T1, PD-L2-Fc (human PD-L2); experiment: yeast surface display, flow cytometry titration with soluble PDL2; remark: listed apart in the source
[7] = target: T2, PDL1-Fc (human PD-L1); experiment: yeast surface display binding assay for PDL1 (summary list)
[8] = target: T2, PDL1-Fc (human PD-L1); experiment: yeast surface display, flow cytometry titration with soluble PDL1 (cell binding A.U. against PDL1 concentration)
[9] = target: T2, PDL1-Fc (human PD-L1); experiment: as above; remark: listed apart in the source
[10] = target: T1, PD-L2-Fc (human PD-L2); experiment: yeast surface display, flow cytometry titration with soluble PDL2 (cell binding A.U. against PDL2 concentration); remark: listed apart in the source
[11] = target: T2, PDL1-Fc (human PD-L1); experiment: yeast surface display, flow cytometry titration with soluble PDL1 (cell binding A.U. against PDL1 concentration); remark: listed apart in the source
[12] = target: T1, PD-L2-Fc (human PD-L2); experiment: yeast surface display, flow cytometry titration with soluble PDL2 (cell binding A.U. against PDL2 concentration); remark: listed apart in the source
[13] = target: T1, PD-L2-Fc (human PD-L2); experiment: yeast surface display, flow cytometry titration with soluble PDL2; remark: listed apart in the source
[14] = target: T2, PDL1-Fc (human PD-L1); experiment: yeast surface display, flow cytometry titration with soluble PDL1; remark: listed apart in the source
[15] = target: T1, PD-L2-Fc (human PD-L2); experiment: yeast surface display, flow cytometry titration with soluble PDL2 (cell binding A.U. against PDL2 concentration); remark: listed apart in the source
[16] = target: T2, PDL1-Fc (human PD-L1); experiment: yeast surface display, flow cytometry titration with soluble PDL1 (cell binding A.U. against PDL1 concentration); remark: listed apart in the source
[17] = target: T1, PD-L2-Fc (human PD-L2); experiment: yeast surface display, flow cytometry titration with soluble PDL2; remark: listed apart in the source
[18] = target: T2, PDL1-Fc (human PD-L1); experiment: yeast surface display, flow cytometry titration with soluble PDL1 (cell binding A.U. against PDL1 concentration); remark: listed apart in the source
[19] = target: T1, PD-L2-Fc (human PD-L2); experiment: yeast surface display, flow cytometry titration with soluble PDL2 (cell binding A.U. against PDL2 concentration); remark: listed apart in the source
[20] = target: T1, PD-L2-Fc (human PD-L2); experiment: yeast surface display, flow cytometry titration with soluble PDL2; remark: listed apart in the source

B1: Clone #3 (128-6 mutations, yeast displayed sPD-1 mutant) (receptor)
chain: LDSPDRPWNPPTFSPALLVVTEGDNATFTCSFSNTSESFVLNWYRMSPSNQTDKLAAFPEDRGQLGQDCRFRVTQLPNGRDFHMSVVRARRNDSGTYLCSAIVLAPKIQIKESLRVELRVTERRAEVPTAHPSPSPRPAGQFQTLV
- EC50 (read off the curve) [1]: ~1 nM
- Kd [2]: 1.1 nM
- Kd [3]: 1.1 nM

B2: Clone #5 (62-3 mutations, yeast displayed sPD-1 mutant) (receptor)
chain: B1 chain with G63S, L65P, V116A
- EC50 (read off the curve) [4]: ~0.8 nM
- Kd [2]: 4.1 nM
- Kd [5]: 4.1 nM
- EC50 (read off the curve) [6]: ~4 nM
- Kd [7]: 0.8 nM
- Kd [8]: 0.8 nM

B3: Clone #2 (120-5 mutations, yeast displayed sPD-1 mutant) (receptor)
chain: B1 chain with L65P
- Kd [9]: 0.12 nM
- Kd [2]: 0.11 nM
- Kd [7]: 0.12 nM
- Kd [10]: 0.11 nM

B4: original mutant sPD-1 (7 mutations, yeast displayed) (receptor)
chain: B1 chain with S38G
notes: also called initial Mutant PD-1 clone; 2-7 mutations
- Kd [11]: 0.44 nM
- Kd [12]: 2.6 nM
- EC50 (read off the curve) [13]: ~3 nM
- Kd [2]: 2.6 nM
- Kd [7]: 0.44 nM
- EC50 (read off the curve) [14]: ~0.4 nM

B5: Clone #4 (100-4 mutations, yeast displayed sPD-1 mutant) (receptor)
chain: B1 chain with G63S, L65P
- Kd [15]: 0.87 nM
- Kd [16]: 0.08 nM
- Kd [2]: 0.87 nM
- Kd [7]: 0.08 nM
- EC50 (read off the curve) [17]: ~0.9 nM

B6: Clone #1 (121-5 mutations, yeast displayed sPD-1 mutant) (receptor)
chain: B1 chain with G63S
- Kd [18]: 0.03 nM
- Kd [2]: 1.4 nM
- Kd [19]: 1.4 nM
- EC50 (read off the curve) [20]: ~1 nM
- Kd [7]: 0.03 nM
